# Results as given in publication PMC4641155 (Molecular Imaging and Biology, 2015).
# “And” between values parts separate entries of the source, which are not always exact repeats. Equal entries are not always repeated. Where two headings read alike, the source gives them in different places.
# What was measured:
# caspase-3/7 = details: cited from earlier work
# Description: Molecular imaging of cell death has gained interest in oncology for monitoring tumor response to cancer therapy. Radiolabeled annexin-V was the first cell death-specific probe to be evaluated clinically. The exposure of membrane aminophospholipids such as PS and PE in the extracellular milieu provides surrogate markers for detecting cell death. PE presents one of the most abundant targets in the membrane bilayer, only preceded by phosphatidylcholine. […] Other ...
# [1] = cited from earlier work
# [2] = Human residence time estimates scaled from mouse μSPECT time-activity curves; format: in vivo, human (extrapolated from mouse); details: scaled from mouse μSPECT TACs, n = 3 non-purified, n = 6 purified
# Description: (§1) Volumes of interest (VOIs) were manually drawn on the μSPECT-CT images using PMOD v3.3 (PMOD Technologies, Switzerland) to delineate the regions with distinct SPECT time-activity pattern: heart, liver, kidney, and urinary bladder, as well as whole-body. The average organ activity per volume was obtained from the co-registered μSPECT images and the non-decay corrected time activity curves (TACs) were extracted for each target organ. In order to relate the scanner units (counts/pixel) to radioactivity concentration (kilobecquerel per cubic centimeter), a scanner calibration factor was estimated by scanning a syringe with a known concentration of Tc-99m. TACs for each organ, as well as the TACs representing the activity in the remainder of the body, were fitted by a single exponential decaying function, which was then integrated to obtain the total number of disintegrations (residence time) within these regions. In order to predict human dosimetry using animal data, interspecies extrapolation is necessary. Thus, the residence times (R) were scaled to human values according to the following formula [21]: R/gorganmouse⋅kgTBweightmouse⋅gorgan/kgTBweighthuman=Rhuman
# (§2) The human organ and body weight values from the standard adult male phantom taken into account are implemented in the internal dosimetry software (OLINDA/EXM v1.1) and are assumed to be constant across individuals. The body weight and organ masses for the individual mice were obtained post-mortem. For the bladder model, the fraction leaving the body via the urinary excretion system (f) and the biological half-life of the excretion (t1/2) were estimated by fitting a first-order linear system to the sum of activity in the bladder and the activity that had been excreted (calculated as total injected activity minus total body activity): y=f1−expln2/t1/2t
# [3] = Projected human organ absorbed doses and effective dose (OLINDA/EXM); format: in vivo, human (extrapolated from mouse); details: OLINDA/EXM v1.1, adult male model, 2-h voiding, from mouse data
# Description: as §1, §2
# Projected human absorbed doses to various organs and the effective doses (ED) were then computed using the aforementioned dosimetry software (weighting factors from International Commission on Radiological Protection 60), with the human residence times as input, using the standard adult male model and the dynamic voiding bladder model (2-h voiding interval).
# [4] = Bladder model fit of urinary excretion; format: in vivo, CD1−/− nude female mice; details: first-order fit of bladder plus excreted activity
# Description: as §2
# [5] = In vivo tumor uptake by μSPECT-CT in COLO205 tumor-bearing mice; design: species or system nude mice; details: female, nude, mouse, bone marrow (lumbar vertebrae and sacrum), iv, 37 MBq, total radioactivity, lumbar vertebrae and sacrum, μSPECT 4 h p.i., 37 MBq i.v.
# Experimental: Irinotecan was administered by intra-peritoneal (i.p.) injection (80 mg/kg) three times in 1 week every other day (n = 3).
# [6] = Dynamic/static whole-body μSPECT-CT biodistribution in healthy mice; format: in vivo; details: female, CD1−/− nude, mouse, kidney, iv, 37 MBq, total radioactivity, 37 MBq i.v., 4 h p.i., mean ± SEM, n = 3 non-purified, n = 6 purified, read-out: renal activity (renal excretion)
# COLO205 cells = test: Muse Annexin V & Dead Cell and Caspase 3/7 assays in irinotecan-treated cells; format: cell-based, human
# COLO205 tumors [7] = test: Ex vivo histology of tumors: cleaved caspase-3 and TUNEL; format: in vivo, nude mice; details: irinotecan-treated tumors; three whole sections, ×400; n = 6; mean ± SEM
# COLO205 tumors [8] = tested on: COLO205 tumors
compound,measurement,setting,value
O=C1C(=O)N(Cc2cn(CC[18F])nn2)c2ccc(S(=O)(=O)N3CCCC3COc3ccc(F)cc3F)cc21 (stereo not drawn) [[^18F]ICMT11],binding affinity for caspase-3/7,caspase-3/7,nanomolar
same,mean effective dose,[1],0.025 mSv/MBq
CC(C)[C@@H]1NC(=O)[C@H](Cc2ccccc2)NC(=O)[C@@H]2NC(=O)[C@H](Cc3ccccc3)NC(=O)[C@@H]3CCCN3C(=O)CNC(=O)[C@H](Cc3ccccc3)NC(=O)[C@@H]3CNCCCC[C@@H](C(=O)O)NC(=O)[C@@H]4NC(=O)[C@H](CC(N)=O)NC(=O)CNC(=O)[C@H]([C@@H](O)C(=O)O)NC(=O)[C@H](CSC[C@@H](NC(=O)[C@H](CCC(N)=O)NC(=O)[C@H](CCCCNC(=O)c5ccc(NN)nc5)NC(=O)[C@@H](N)CS[C@H]4C)C(=O)N[C@@H](CS[C@H]2C)C(=O)N3)NC1=O [non-purified [^99mTc]duramycin] [metal not drawn],"Mean human residence time, heart contents",[2],0.0244 h
same,"Mean human residence time, kidneys",[2],0.13 h
same,"Mean human residence time, liver",[2],1.02 h
same,"Mean human residence time, remaining body",[2],3.41 h
same,"Mean human residence time, urinary bladder contents",[2],0.369 h
same,"Mean human absorbed dose, total body",[3],2.52 × 10^−3 mGy/MBq
same,"Mean human organ absorbed dose, LLI wall",[3],3.01 × 10^−3 mGy/MBq
same,"Mean human organ absorbed dose, ULI wall",[3],3.10 × 10^−3 mGy/MBq
same,"Mean human organ absorbed dose, adrenals",[3],3.90 × 10^−3 mGy/MBq
same,"Mean human organ absorbed dose, brain",[3],1.54 × 10^−3 mGy/MBq
same,"Mean human organ absorbed dose, breasts",[3],1.51 × 10^−3 mGy/MBq
same,"Mean human organ absorbed dose, gallbladder wall",[3],5.38 × 10^−3 mGy/MBq
same,"Mean human organ absorbed dose, heart wall",[3],3.12 × 10^−3 mGy/MBq
same,"Mean human organ absorbed dose, kidneys",[3],8.45 × 10^−3 mGy/MBq
same,"Mean human organ absorbed dose, liver",[3],1.27 × 10^−2 ± 5.97 × 10^−3 mGy/MBq and 1.27 × 10 ^−2 mGy/MBq
same,"Mean human organ absorbed dose, lungs",[3],2.52 × 10^−3 mGy/MBq
same,"Mean human organ absorbed dose, muscle",[3],2.12 × 10^−3 mGy/MBq
same,"Mean human organ absorbed dose, osteogenic cells",[3],5.51 × 10^−3 mGy/MBq
same,"Mean human organ absorbed dose, ovaries",[3],3.15 × 10^−3 mGy/MBq
same,"Mean human organ absorbed dose, pancreas",[3],3.79 × 10^−3 mGy/MBq
same,"Mean human organ absorbed dose, red marrow",[3],2.16 × 10^−3 mGy/MBq
same,"Mean human organ absorbed dose, skin",[3],1.34 × 10^−3 mGy/MBq
same,"Mean human organ absorbed dose, small intestine",[3],3.01 × 10^−3 mGy/MBq
same,"Mean human organ absorbed dose, spleen",[3],2.48 × 10^−3 mGy/MBq
same,"Mean human organ absorbed dose, stomach wall",[3],2.63 × 10^−3 mGy/MBq
same,"Mean human organ absorbed dose, testes",[3],2.11 × 10^−3 mGy/MBq
same,"Mean human organ absorbed dose, thymus",[3],2.03 × 10^−3 mGy/MBq
same,"Mean human organ absorbed dose, thyroid",[3],1.87 × 10^−3 mGy/MBq
same,"Mean human organ absorbed dose, urinary bladder wall",[3],1.66 × 10^−2 ± 4.55 × 10^−3 mGy/MBq and 1.66 × 10 ^−2 mGy/MBq
same,"Mean human organ absorbed dose, uterus",[3],4.05 × 10^−3 mGy/MBq
same,"f, mean fraction leaving the body via the urinary excretion system",[4],0.519
same,"t 1/2, mean biological half-life of the excretion",[4],2.950 h
"CC(C)[C@@H]1NC(=O)[C@H](Cc2ccccc2)NC(=O)[C@@H]2NC(=O)[C@H](Cc3ccccc3)NC(=O)[C@@H]3CCCN3C(=O)CNC(=O)[C@H](Cc3ccccc3)NC(=O)[C@@H]3CNCCCC[C@@H](C(=O)O)NC(=O)[C@@H]4NC(=O)[C@H](CC(N)=O)NC(=O)CNC(=O)[C@H]([C@@H](O)C(=O)O)NC(=O)[C@H](CSC[C@@H](NC(=O)[C@H](CCC(N)=O)NC(=O)[C@H](CCCCNC(=O)c5ccc(NN)nc5)NC(=O)[C@@H](N)CS[C@H]4C)C(=O)N[C@@H](CS[C@H]2C)C(=O)N3)NC1=O [purified [^99mTc]duramycin, metal not drawn]",SUV at 4 h,[5]; irinotecan-treated mice,0.12 ± 0.02 SUV
same,SUV at 4 h,[5]; vehicle-treated mice,0.11 ± 0.01 SUV
same,tissue uptake per volume at 4 h,[6],6.82 ± 0.41 %ID/mL
"[^99mTc]HYNIC-annexin V: radiolabeled human recombinant annexin V, apoptosis imaging agent",mean effective dose,[1]; in vivo,0.011 mSv/MBq
CCc1c2c(nc3ccc(OC(=O)N4CCC(N5CCCCC5)CC4)cc13)-c1cc3c(c(=O)n1C2)COC(=O)[C@]3(O)CC [irinotecan],level of cell necrosis,"COLO205 cells; irinotecan 0.43, 4.3, 43 μM, 40 h, Muse assays",did not result in an increased level of cell necrosis
same,apoptosis levels,"COLO205 cells; irinotecan treatment 40 h, annexin-V binding and effector caspase activation",increase in apoptosis levels
same,number of CC3-positive cells,COLO205 tumors [7],9.5 ± 1.1
same,number of TUNEL-positive cells,COLO205 tumors [7],10.5 ± 1.6
same,overall toxicity with respect to body weight loss,"COLO205 tumors [8]; 80 mg/kg irinotecan, data not shown",No overall toxicity
same,BLI signal change after treatment,"COLO205 tumors [8]; bioluminescence imaging after vs before treatment, irinotecan 80 mg/kg i.p.",0.75 ± 0.28
same,tumor growth inhibition,"COLO205 tumors [8]; day 5, irinotecan 80 mg/kg i.p. three times in 1 week, vs vehicle",34.4 ± 6.9%
